Measured values reported in patent US20250339569A1 (3B PHARMACEUTICALS, published 2025).
Starred links: 1 amine or outer side, 2 acyl side, 3 side chain; linkers in the order of their positions; H or OH if unused. Positions of bridges follow the written chain, without caps; N, C: chain ends. Non-standard residues stand in square brackets, D forms with d. Primed or numbered codes have the meaning given here. No end group written: not given here. ξ: configuration not given here. *: point of attachment. Af3(MCprAc) = 3-aminophenylalanine with 1-methylcyclopropane-1-carbonyl on the ring amine, CC1(C(=O)Nc2cccc(C[C@H](N[*:1])C(=O)[*:2])c2)CC1; Af3(Iva) = 3-aminophenylalanine with isovaleryl on the ring amine, CC(C)CC(=O)Nc1cccc(C[C@H](N[*:1])C(=O)[*:2])c1; Af3(Prp) = 3-aminophenylalanine with propionyl on the ring amine, CCC(=O)Nc1cccc(C[C@H](N[*:1])C(=O)[*:2])c1; Eem = S-benzyl-cysteine-sulfone, O=C([C@H](CS(=O)(=O)Cc1ccccc1)N[*:1])[*:2]; APAc″ = 2-(4-(amino)piperidin-1-yl)acetic acid, NC1CCN(CC(=O)*)CC1; DOTA = O=C(O)CN1CCN(CC(=O)O)CCN(CC(=O)*)CCN(CC(=O)O)CC1; Phe(3,4-Cl2) = N[C@@H](Cc1ccc(Cl)c(Cl)c1)C(=O)O; Phe(3-CF3) = N[C@@H](Cc1cccc(C(F)(F)F)c1)C(=O)O; Phe(4-CF3) = N[C@@H](Cc1ccc(C(F)(F)F)cc1)C(=O)O; Trp(7-aza) = N[C@@H](Cc1c[nH]c2ncccc12)C(=O)O; ξTrp(7-Me) = Cc1cccc2c(CC(N)C(=O)O)c[nH]c12; Bip = N[C@@H](Cc1ccc(-c2ccccc2)cc1)C(=O)O; ξTrp(1-Me) = Cn1cc(CC(N)C(=O)O)c2ccccc21; Dip = N[C@H](C(=O)O)C(c1ccccc1)c1ccccc1; Phe(4-I) = N[C@@H](Cc1ccc(I)cc1)C(=O)O; dmo = (R)-dimethylornithine (D form); mXylylene = c1cc(C[*:1])cc(C[*:2])c1; Orn(Me2) = CN(C)CCC[C@H](N)C(=O)O; tBuAla = CC(C)(C)C[C@H](N)C(=O)O; Cha = N[C@@H](CC1CCCCC1)C(=O)O; NMeD = CN[C@@H](CC(=O)O)C(=O)O; Pen = CC(C)(S)[C@H](N)C(=O)O; hSer = N[C@@H](CCO)C(=O)O; AGLU′ = not defined here; Orn = NCCC[C@H](N)C(=O)O; APAc = not defined here; Dap = NC[C@H](N)C(=O)O

Biological target: human carbonic anhydrase 9 (CAIX) (human, UniProt Q16790 38-459)
Assay: FACS competition on HT-29 cells, competitor tracer 3BP-2776; category A = pIC50 >8.0
Method: CAIX-expressing human HT-29 colorectal cancer cells (DSMZ, RRID: CVCL_0320) were cultured in McCoys's 5A modified medium (Biochrom, #F1015) including 10% fetal calf serum (FCS), 2 mM L-glutamine, 100 U/ml penicillin and 100 μg/mL streptomycin. Cells were detached with Accutase (Biolegend, #423201) and washed in FACS buffer (PBS including 1% FCS). Cells were diluted in FACS buffer to a final concentration of 500.000 cells per ml. 200 μL of the cell suspension were transferred to a u-shaped non-binding 96-well plate (Greiner) and cells were washed in ice-cold FACS buffer.
When biotinylated compounds were used an additional incubation step with 1 μg/mL APC-Streptavidin (Miltenyi; #130-106-791) in 50 μL FACS buffer for 30 minutes on ice was performed.
Cells were washed twice with ice-cold FACS buffer and analyzed in an Attune NxT flow cytometer (Thermo Fisher). Median fluorescence intensities (MFI) of the APC/Cy5-channel were calculated by Attune NxT software.

pIC50 [pic50] | Binder
> 8 | {DOTA-APAc}-VYCE[dmo]DWLTWSC-NH2 (linker 3-12 via mXylylene; reading uncertain) [3BP-4097]
> 8 | {DOTA-APAc}-VYCE[dP][NMeD]WLTWSC-NH2 (linker 3-12 via mXylylene; reading uncertain) [3BP-4107]
> 8 | {DOTA-APAc″}-VYCE[dP]D[ξTrp(1-Me)]LTWSC-NH2 (linker 3-12 via mXylylene; not fully specified) [3BP-4144]
> 8 | {DOTA-APAc}-VYCE(AGLU′)[dP]DWLTWSC-NH2 (linker 3-12 via mXylylene; reading uncertain) [3BP-4113]
> 8 | {DOTA-APAc″}-VYCE[dP]D[Af3(Prp)]LTWSC-NH2 (linker 3-12 via mXylylene) [3BP-4235]
> 8 | {DOTA-APAc″}-VYCE[dP]D[ξTrp(7-Me)]LTWSC-NH2 (linker 3-12 via mXylylene; not fully specified) [3BP-4158]
> 8 | {DOTA}-YCE[dP]KWLEWSC-NH2 (linker 2-11 via mXylylene; lactam 5-8; SMILES CC(C)C[C@@H]1NC(=O)[C@H](Cc2c[nH]c3ccccc23)NC(=O)[C@@H]2CCCCNC(=O)CC[C@H](NC1=O)C(=O)N[C@@H](Cc1c[nH]c3ccccc13)C(=O)N[C@@H](CO)C(=O)N[C@H](C(N)=O)CSCc1cccc(c1)CSC[C@H](NC(=O)[C@H](Cc1ccc(O)cc1)NC(=O)CN1CCN(CC(=O)O)CCN(CC(=O)O)CCN(CC(=O)O)CC1)C(=O)N[C@@H](CCC(=O)O)C(=O)N1CCC[C@@H]1C(=O)N2) [3BP-3934]
> 8 | {DOTA-APAc}-VYCE[dP]DWL[Orn(Me2)]WSC-NH2 (linker 3-12 via mXylylene; reading uncertain) [3BP-4099]
> 8 | {DOTA-APAc}-VYCE[dP]D[Dip]LTWSC-NH2 (linker 3-12 via mXylylene; not fully specified; reading uncertain) [3BP-4132]
> 8 | {DOTA-APAc}-VYCE[dP]D[Bip]LTWSC-NH2 (linker 3-12 via mXylylene; not fully specified; reading uncertain) [3BP-4131]
> 8 | {DOTA-APAc″}-VYCE[dP]DW[Cha]TWSC-NH2 (linker 3-12 via mXylylene) [3BP-4143]
> 8 | Ac-VYCE[dP]KWLEWS[Pen]-NH2 (linker 3-12 via mXylylene; lactam 6-9; SMILES CC(=O)N[C@H](C(=O)N[C@@H](Cc1ccc(O)cc1)C(=O)N[C@H]1CSCc2cccc(c2)CSC(C)(C)[C@@H](C(N)=O)NC(=O)[C@H](CO)NC(=O)[C@H](Cc2c[nH]c3ccccc23)NC(=O)[C@@H]2CCC(=O)NCCCC[C@H](NC(=O)[C@H]3CCCN3C(=O)[C@H](CCC(=O)O)NC1=O)C(=O)N[C@@H](Cc1c[nH]c3ccccc13)C(=O)N[C@@H](CC(C)C)C(=O)N2)C(C)C) [3BP-3963]
> 8 | {DOTA-APAc}-VYCE[dP]D[Phe(3-CF3)]LTWSC-NH2 (linker 3-12 via mXylylene; not fully specified; reading uncertain) [3BP-4135]
> 8 | {DOTA-APAc}-V[Orn(Me2)]CE[dP]DWLTWSC-NH2 (linker 3-12 via mXylylene; reading uncertain) [3BP-4095]
> 8 | {DOTA-APAc″}-V[Dap]CE[dP]DWLTWEC-NH2 (lactam 2-11; linker 3-12 via mXylylene) [3BP-4177]
> 8 | {DOTA-APAc″}-V[Dap]CE[dP]DWLTWDC-NH2 (lactam 2-11; linker 3-12 via mXylylene) [3BP-4176]
> 8 | {DOTA-APAc}-VYCE[dP]D[Phe(4-CF3)]LTWSC-NH2 (linker 3-12 via mXylylene; not fully specified; reading uncertain) [3BP-4139]

pIC50 [pic50] | Binder
> 8 | {DOTA-APAc}-VYC[hSer][dP]DWLTWSC-NH2 (linker 3-12 via mXylylene; reading uncertain) [3BP-4101]
> 8 | {DOTA-APAc″}-VYCE[dP]D[Af3(Iva)]LTWSC-NH2 (linker 3-12 via mXylylene) [3BP-4236]
> 8 | Ac-VYCE[dP][Orn]WLDWSC-NH2 (linker 3-12 via mXylylene; lactam 6-9; SMILES CC(=O)N[C@H](C(=O)N[C@@H](Cc1ccc(O)cc1)C(=O)N[C@H]1CSCc2cccc(c2)CSC[C@@H](C(N)=O)NC(=O)[C@H](CO)NC(=O)[C@H](Cc2c[nH]c3ccccc23)NC(=O)[C@@H]2CC(=O)NCCC[C@H](NC(=O)[C@H]3CCCN3C(=O)[C@H](CCC(=O)O)NC1=O)C(=O)N[C@@H](Cc1c[nH]c3ccccc13)C(=O)N[C@@H](CC(C)C)C(=O)N2)C(C)C) [3BP-4005]
> 8 | {DOTA-APAc}-VYCE[dP][hSer]WLTWSC-NH2 (linker 3-12 via mXylylene; reading uncertain) [3BP-4102]
> 8 | {DOTA-APAc}-VYCE[dP][Eem]WLTWSC-NH2 (linker 3-12 via mXylylene; not fully specified; reading uncertain) [3BP-4123]
> 8 | {DOTA-APAc}-VYCE[dP]D[Phe(4-I)]LTWSC-NH2 (linker 3-12 via mXylylene; not fully specified; reading uncertain) [3BP-4134]
> 8 | {DOTA-APAc}-VYC[Orn(Me2)][dP]DWLTWSC-NH2 (linker 3-12 via mXylylene; reading uncertain) [3BP-4096]
> 8 | {DOTA-APAc}-VYCE[dP]D[Phe(3,4-Cl2)]LTWSC-NH2 (linker 3-12 via mXylylene; not fully specified; reading uncertain) [3BP-4133]
> 8 | {DOTA-APAc″}-VDCE[dP]DWLTW[Dap]C-NH2 (lactam 2-11; linker 3-12 via mXylylene) [3BP-4174]
> 8 | {DOTA}-SDCE[dP]DWLTW[Dap]C-NH2 (lactam 11-2; linker 3-12 via mXylylene; SMILES CC(C)C[C@@H]1NC(=O)[C@H](Cc2c[nH]c3ccccc23)NC(=O)[C@H](CC(=O)O)NC(=O)[C@H]2CCCN2C(=O)[C@H](CCC(=O)O)NC(=O)[C@@H]2CSCc3cccc(c3)CSC[C@@H](C(N)=O)NC(=O)[C@H](CNC(=O)C[C@H](NC(=O)[C@H](CO)NC(=O)CN3CCN(CC(=O)O)CCN(CC(=O)O)CCN(CC(=O)O)CC3)C(=O)N2)NC(=O)[C@H](Cc2c[nH]c3ccccc23)NC(=O)[C@H]([C@@H](C)O)NC1=O) [3BP-4257]
> 8 | {DOTA-APAc}-VYCE[dP]DWLTW[Orn(Me2)]C-NH2 (linker 3-12 via mXylylene; reading uncertain) [3BP-4100]
> 8 | {DOTA-APAc″}-VECE[dP]DWLTW[Dap]C-NH2 (lactam 2-11; linker 3-12 via mXylylene) [3BP-4175]
> 8 | {DOTA-APAc″}-VYCE[dP]D[Af3(MCprAc)]LTWSC-NH2 (linker 3-12 via mXylylene) [3BP-4234]
> 8 | {DOTA-APAc″}-VYCE[dP]DWLT[Trp(7-aza)]SC-NH2 (linker 3-12 via mXylylene) [3BP-4159]
> 8 | [dP]PVYCE[dP]DWLTWSC (linker 5-14 via mXylylene; not fully specified (bridges), Bracket use differs from the other compounds; the outer cycle is read as closing pro1 with Cys14) [3BP-4178]
> 8 | {DOTA-APAc″}-VYCE[dP]DW[tBuAla]TWSC-NH2 (linker 3-12 via mXylylene) [3BP-4142]
